The target in this test is MBP2-ISEF-N1G1N2-(…)-NVDE1-184-…-FKBP2-GSRS-6His (bacteriophage M13; yeast; human) (UniProt P69168). As to the kind of experiment: cell-based or functional assay.
Chain of MBP2-ISEF-N1G1N2-(…)-NVDE1-184-…-FKBP2-GSRS-6His (bacteriophage M13; yeast; human) (P69168 19-265, tags or fused parts left off): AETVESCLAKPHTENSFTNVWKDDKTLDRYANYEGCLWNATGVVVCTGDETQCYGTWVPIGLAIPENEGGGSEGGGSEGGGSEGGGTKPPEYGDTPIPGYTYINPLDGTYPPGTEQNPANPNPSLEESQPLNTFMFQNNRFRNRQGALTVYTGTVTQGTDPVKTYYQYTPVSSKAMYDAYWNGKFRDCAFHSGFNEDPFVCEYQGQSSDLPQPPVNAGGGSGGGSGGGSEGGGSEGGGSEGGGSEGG

For “phage displaying the fusion protein FRB-TS-CVDE390-454-GSGGGS-CTg3p (from UniProt P42345 2021-2113; P17255 390-454)”, the phages recovering infecting ability counted as colony forming units, with against without rapamycin (10 µM) is 100 times.

The values are drawn from patent US20100273669A1.
